Data as given in paper PMC6180346, “Two Faces of CwlM, an Essential PknB Substrate, in Mycobacterium tuberculosis” (Cell Reports, 2018).

Assays:
Assay in all cases: co-IP; recombinant CwlM (PknB-phosphorylated or non-phosphorylated) and the other recombinant protein, 10 μg each, in 20 mM KH2PO4 pH 7.0, 100 mM NaCl, 10 mM KCl, with anti-CwlM-IgG-Sepharose; bound and unbound on SDS-PAGE, Coomassie; densitometry as percent of the total amount used
[1] = target: Recombinant 6xHis-tagged CwlM, non-phosphorylated (M. tuberculosis) (UniProt L7N653)
[2] = target: Recombinant 6xHis-tagged CwlM, PknB-phosphorylated (M. tuberculosis) (UniProt L7N653)
[3] = target: T1, Recombinant 6xHis-tagged CwlM, non-phosphorylated (M. tuberculosis, UniProt L7N653 1-406); conditions: both partners purified
T1 construct: also called non-phosphorylated recombinant CwlM; non-phosphorylated CwlM
T1 sequence: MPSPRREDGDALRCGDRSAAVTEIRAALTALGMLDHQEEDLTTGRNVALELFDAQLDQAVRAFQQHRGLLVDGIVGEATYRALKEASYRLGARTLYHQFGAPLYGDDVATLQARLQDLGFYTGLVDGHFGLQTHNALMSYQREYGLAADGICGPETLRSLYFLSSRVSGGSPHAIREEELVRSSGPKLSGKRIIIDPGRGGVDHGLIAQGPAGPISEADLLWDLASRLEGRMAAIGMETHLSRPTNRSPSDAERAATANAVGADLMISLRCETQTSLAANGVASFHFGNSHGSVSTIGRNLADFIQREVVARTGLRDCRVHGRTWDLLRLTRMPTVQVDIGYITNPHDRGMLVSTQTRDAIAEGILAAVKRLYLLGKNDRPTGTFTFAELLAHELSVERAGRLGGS

Molecule	percent co-precipitated [1] [%]	percent co-precipitated [2] [%]	binding result [3]
Recombinant 6XHis-tagged MurJ ICD (domain or fragment)	85	12	–
Recombinant 6xHis-tagged 6xHis-MurJ_(E541-F680) (domain or fragment, The N-terminal end of the tag is read from the printed name 6xHis-MurJ_(E541-F680); also called MurJ linker; linker region (E541-F680)) EARAALDAVRARIRSRRLKTGPQTQNVLDQSSRPGPVTYPERRRLAPPRGKSVVHEPIRRRPPEQVARAGRAKGPEVIDRPSENASFGAASGAELPRPVADELQLDAPAGRDPGPVSRPHPSDLQNGDLPADAARGPIAF	–	–	binds
